Assay results taken from US12180485B2, “Repressible control of gene expression” (TRUSTEES OF BOSTON UNIVERSITY, priority 2020, dated 2024).

B1: SEQ ID NO: 801: inducible system polypeptide, probably Table 20 (GID-GAI) (protein)
chain: MLDLASLILIEKKKSFAKGMGVKSTLVSGSKVYMTTFAEGSDARLEKIVEGDSIRSVNEGEAFSAEMADKNAGYKIGNAKFSHPKGYAVVANNPLYTGPVQQDMLGLKETLEKRYFGESADGNDNICIQVIHNILDIEKILAEYITNAAYAVNNISGLDKDIIGFGKFSTVYTYDEFKDPEHHRAAFNNNDKLINAIKAQYDEFDNFLDNPRLGYFGQAFFSKEGRNYIINYGNECYDILALLSGLRHWVVHNNEEESRISRTWLYNLDKNLDNEYISTLNYLYDRITNELTNSFSKNSAANVNYIAETLGINPAEFAEQYFRFSIMKEQKNLGFNITKLREVMLDRKDMSEIRKNHKVFDSIRTKVYTMMDFVIYRYYIEEDAKVAAANKSLPDNEKSLSEKDIFVINLRGSFNDDQKDALYYDEANRIWRKLENIMHNIKEFRGNKTREYKKKDAPRLPRILPAGRDVSAFSKLMYALTMFLDGKEINDLLTTLINKFDNIQSFLKVMPLIGVNAKFVEEYAFFKDSAKIADELRLIKSFARMGEPIADARRAMYIDAIRILGTNLSYDELKSGGSGSGSSGGSGTMAASDEVNLIESRTVVPLNTWVLISNFKVAYNILRRPDGTFNRHLAEYLDRKVTANANPVDGVFSFDVLIDRRINLLSRVYRPAYADQEQPPSILDLEKPVDGDIVPVILFFHGGSFAHSSANSAIYDTLCRRLVGLCKCVVVSVNYRRAPENPYPCAYDDGWIALNWVNSRSWLKSKKDSKVHIFLAGDSSGGNIAHNVALRAGESGIDVLGNILLNPMFGGNERTESEKSLDGKYFVTVRDRDWYWKAFLPEGEDREHPACNPFSPRGKSLEGVSFPKSLVVVAGLDLIRDWQLAYAEGLKKAGQEVKLMHLEKATVGFYLLPNNNHFHNVMDEISAFVNAECLDLASLIL
B2: SEQ ID NO: 805: inducible system polypeptide, probably Table 20 (GID-GAI) (protein)
chain: MLDLASLILIEKKKSFAKGMGVKSTLVSGSKVYMTTFAEGSDARLEKIVEGDSIRSVNEGEAFSAEMADKNAGYKIGNAKFSHPKGYAVVANNPLYTGPVQQDMLGLKETLEKRYFGESADGNDNICIQVIHNILDIEKILAEYITNAAYAVNNISGLDKDIIGFGKFSTVYTYDEFKDPEHHRAAFNNNDKLINAIKAQYDEFDNFLDNPRLGYFGQAFFSKEGRNYIINYGNECYDILALLSGLRHWVVHNNEEESRISRTWLYNLDKNLDNEYISTLNYLYDRITNELTNSFSKNSAANVNYIAETLGINPAEFAEQYFRFSIMKEQKNLGFNITKLREVMLDRKDMSEIRKNHKVFDSIRTKVYTMMDFVIYRYYIEEDAKVAAANKSLPDNEKSLSEKDIFVINLRGSFNDDQKDALYYDEANRIWRKLENIMHNIKEFRGNKTREYKKKDAPRLPRILPAGRDVSAFSKLMYALTMFLDGKEINDLLTTLINKFDNIQSFLKVMPLIGVNAKFVEEYAFFKDSAKIADELRLIKSFARMGEPIADARRAMYIDAIRILGTNLSYDELKALADTFSLDENGNKLKKGKHGMRNFIINNVISNKRFHYLIRYGDPAHLHEIAKNEAVVKFVLGRIADIQKKQGQNGKNQIDRYYETCIGKSGGSGSGSSGGSGTMAASDEVNLIESRTVVPLNTWVLISNFKVAYNILRRPDGTFNRHLAEYLDRKVTANANPVDGVFSFDVLIDRRINLLSRVYRPAYADQEQPPSILDLEKPVDGDIVPVILFFHGGSFAHSSANSAIYDTLCRRLVGLCKCVVVSVNYRRAPENPYPCAYDDGWIALNWVNSRSWLKSKKDSKVHIFLAGDSSGGNIAHNVALRAGESGIDVLGNILLNPMFGGNERTESEKSLDGKYFVTVRDRDWYWKAFLPEGEDREHPACNPFSPRGKSLEGVSFPKSLVVVAGLDLIRDWQLAYAEGLKKAGQEVKLMHLEKATVGFYLLPNNNHFHNVMDEISAFVNAECLDLASLIL
B3: SEQ ID NO: 809: inducible system polypeptide, probably Table 20 (GID-GAI) (protein)
chain: MAASDEVNLIESRTVVPLNTWVLISNFKVAYNILRRPDGTFNRHLAEYLDRKVTANANPVDGVFSFDVLIDRRINLLSRVYRPAYADQEQPPSILDLEKPVDGDIVPVILFFHGGSFAHSSANSAIYDTLCRRLVGLCKCVVVSVNYRRAPENPYPCAYDDGWIALNWVNSRSWLKSKKDSKVHIFLAGDSSGGNIAHNVALRAGESGIDVLGNILLNPMFGGNERTESEKSLDGKYFVTVRDRDWYWKAFLPEGEDREHPACNPFSPRGKSLEGVSFPKSLVVVAGLDLIRDWQLAYAEGLKKAGQEVKLMHLEKATVGFYLLPNNNHFHNVMDEISAFVNAECSGGSGSGSSGGSGTSYDELKALADTFSLDENGNKLKKGKHGMRNFIINNVISNKRFHYLIRYGDPAHLHEIAKNEAVVKFVLGRIADIQKKQGQNGKNQIDRYYETCIGKDKGKSVSEKVDALTKIITGMNYDQFDKKRSVIEDTGRENAEREKFKKIISLYLTVIYHILKNIVNINARYVIGFHCVERDAQLYKEKGYDINLKKLEEKGFSSVTKLCAGIDETAPDKRKDVEKEMAERAKESIDSLESANPKLYANYIKYSDEKKAEEFTRQINREKAKTALNAYLRNTKWNVIIREDLLRIDNKTCTLFRNKAVHLEVARYVHAYINDIAEVNSYFQLYHYIMQRIIMNERYEKSSGKVSEYFDAVNDEKKYNDRLLKLLCVPFGYCIPRFKNLSIEALFDRNEAAKFDKEKKKVSGNSGSGPKKKRKVPKKKRKV
B4: SEQ ID NO: 804: inducible system polypeptide, probably Table 20 (GID-GAI) (protein)
chain: MAPKKKRKVGIHGVPAAKRDHHHHHHQDKKTMMMNEEDDGNGMDELLAVLGYKVRSSEMADVAQKLEQLEVMMSNVQEDDLSQLATETVHYNPAELYTWLDSMLTDLNSGGSGSGSSGGSGTDKGKSVSEKVDALTKIITGMNYDQFDKKRSVIEDTGRENAEREKFKKIISLYLTVIYHILKNIVNINARYVIGFHCVERDAQLYKEKGYDINLKKLEEKGFSSVTKLCAGIDETAPDKRKDVEKEMAERAKESIDSLESANPKLYANYIKYSDEKKAEEFTRQINREKAKTALNAYLRNTKWNVIIREDLLRIDNKTCTLFRNKAVHLEVARYVHAYINDIAEVNSYFQLYHYIMQRIIMNERYEKSSGKVSEYFDAVNDEKKYNDRLLKLLCVPFGYCIPRFKNLSIEALFDRNEAAKFDKEKKKVSGNSGSGPKKKRKV
B5: Split 263/264: RfxCas13d split at 263/264 (SEQ ID NOs: 14, 15) with GIB CID domains (protein)
chain 1: IEKKKSFAKGMGVKSTLVSGSKVYMTTFAEGSDARLEKIVEGDSIRSVNEGEAFSAEMADKNAGYKIGNAKFSHPKGYAVVANNPLYTGPVQQDMLGLKETLEKRYFGESADGNDNICIQVIHNILDIEKILAEYITNAAYAVNNISGLDKDIIGFGKFSTVYTYDEFKDPEHHRAAFNNNDKLINAIKAQYDEFDNFLDNPRLGYFGQAFFSKEGRNYIINYGNECYDILALLSGLRHWVVHNNEEESRISRTWLYNLDKNL
chain 2: DNEYISTLNYLYDRITNELTNSFSKNSAANVNYIAETLGINPAEFAEQYFRFSIMKEQKNLGFNITKLREVMLDRKDMSEIRKNHKVFDSIRTKVYTMMDFVIYRYYIEEDAKVAAANKSLPDNEKSLSEKDIFVINLRGSFNDDQKDALYYDEANRIWRKLENIMHNIKEFRGNKTREYKKKDAPRLPRILPAGRDVSAFSKLMYALTMFLDGKEINDLLTTLINKFDNIQSFLKVMPLIGVNAKFVEEYAFFKDSAKIADELRLIKSFARMGEPIADARRAMYIDAIRILGTNLSYDELKALADTFSLDENGNKLKKGKHGMRNFIINNVISNKRFHYLIRYGDPAHLHEIAKNEAVVKFVLGRIADIQKKQGQNGKNQIDRYYETCIGKDKGKSVSEKVDALTKIITGMNYDQFDKKRSVIEDTGRENAEREKFKKIISLYLTVIYHILKNIVNINARYVIGFHCVERDAQLYKEKGYDINLKKLEEKGFSSVTKLCAGIDETAPDKRKDVEKEMAERAKESIDSLESANPKLYANYIKYSDEKKAEEFTRQINREKAKTALNAYLRNTKWNVIIREDLLRIDNKTCTLFRNKAVHLEVARYVHAYINDIAEVNSYFQLYHYIMQRIIMNERYEKSSGKVSEYFDAVNDEKKYNDRLLKLLCVPFGYCIPRFKNLSIEALFDRNEAAKFDKEKKKVSGNS
modifications: GIB CID domains attached

System: mCherry expression in HEK293 FT cells
Test: Inducible split RfxCas13d (GIB, RAP, ABA, Dano, GRZ CID domains; NES/NLS variants) mCherry knockdown, leakiness and inducibility
Type: cell-based
Conditions: for performance in the tested conditions: inducible polypeptide systems of Tables 18-22
Source text: FIG. 6A-6C is a series of schematics and graphs showing that split RfxCas13d's reconstituted and functioned to knockdown mCherry expression in HEK293 FT cells FIG. 6A is a schematic showing split sites selected throughout RfxCas13d sequence. FIG. 6B is a bar graph showing mCherry expression under 4 conditions for gibberellin-inducible, rapalog-inducible, and abscisic acid-inducible inducible split Cas13d designs. In FIG. 6B and FIG. 6C, the left-right order of the bars for each split site is the same as the left-right order of the legend for each bar graph.
FIG. 7A-7E is a series of schematics and graphs showing a functional and inducible split Cas13d design. FIG. 7A is a bar graph showing additional split sites selected in RfxCas13d and tested with GIB CID domains. […] In FIG. 7A and FIG. 7C, the left-right order of the bars for each split site is the same as the left-right order of the legend. FIG. 7B is a schematic showing the design to compartmentalize splits. Compartmentalizing moieties facilitates the reduction of leakiness. […] FIG. 7D is a schematic showing the experiment flow for testing reversibility of the inducible split Cas13d's.
FIG. 8A-8B is a series of schematics and graphs showing that split RfxCas13d's reconstituted upon drug-induced dimerization and knocked down mCherry expression in HEK293 FT cells. FIG. 8A is a bar graph showing quantification of system performance. The left-right order of the bars for each split site is the same as the top-down order of the legend. […] System performance in leakiness score (left axis) and induced activity (right axis) by GIB, RAP, ABA, and Dano-inducible split Cas13d designs.
FIG. 10A-10B is a series of schematics and graphs showing performance optimization through separating split Cas13d moieties in different cellular compartments. […] The left-right order of the bars for each bar graph is the same as the top-down order of the legend.
FIG. 11 is a series of schematics and graphs showing the testing of reversed orientation (dark grey dots) of CID domains with respect to split Cas13d pieces against original orientations (light grey dots) designed for GIB, ABA, Dano, and GRZ inducible systems.

[1] = RfxCas13d split with GIB CID domains

| Molecule | performance in the tested conditions | knockdown efficiency [1] | leaky off state activity [1] |
| --- | --- | --- | --- |
| B1 | highest performance | – | – |
| B2 | highest performance | – | – |
| B3 | highest performance | – | – |
| B4 | highest performance | – | – |
| B5 | – | over 60% | minimum leaky off state activity |
